Measurements from patent US20220332804A1 (CSL INNOVATION, published 2022).
Residue numbers refer to the chain shown, from its start.

How the values were obtained:
Assay in all cases: SPR, antibody captured, C2 as analyte;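 further: biacore at 37 °C, anti-C2 mAbs held by immobilised goat anti-human IgG, C2 alanine or serine mutants injected, double-referenced sensorgrams fitted to a 1:1 kinetic or steady-state model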
[1] = biological target: T1, human C2 M316A (human, UniProt P06681 21-752)
T1 sequence: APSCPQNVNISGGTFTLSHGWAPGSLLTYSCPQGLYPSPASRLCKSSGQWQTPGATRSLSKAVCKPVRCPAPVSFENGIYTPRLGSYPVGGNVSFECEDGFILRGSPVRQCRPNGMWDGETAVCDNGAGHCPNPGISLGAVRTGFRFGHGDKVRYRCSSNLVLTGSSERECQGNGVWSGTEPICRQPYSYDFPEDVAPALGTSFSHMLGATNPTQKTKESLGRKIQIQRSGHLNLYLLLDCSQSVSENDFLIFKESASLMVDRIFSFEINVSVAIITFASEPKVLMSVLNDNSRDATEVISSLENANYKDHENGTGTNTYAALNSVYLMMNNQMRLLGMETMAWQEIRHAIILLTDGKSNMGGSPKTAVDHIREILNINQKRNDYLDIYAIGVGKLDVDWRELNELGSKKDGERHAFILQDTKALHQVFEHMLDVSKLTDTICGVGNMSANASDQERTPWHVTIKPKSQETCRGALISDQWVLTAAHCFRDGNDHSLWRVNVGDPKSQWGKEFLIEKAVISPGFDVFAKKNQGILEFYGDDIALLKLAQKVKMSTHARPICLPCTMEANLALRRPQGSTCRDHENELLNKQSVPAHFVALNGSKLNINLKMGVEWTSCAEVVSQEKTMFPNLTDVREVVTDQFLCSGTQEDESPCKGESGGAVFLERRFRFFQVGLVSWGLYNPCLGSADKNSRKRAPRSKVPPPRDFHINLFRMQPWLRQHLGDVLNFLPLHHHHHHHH

[2] = biological target: T2, human C2 N380A (human, UniProt P06681 21-752)
T2 sequence: T1 sequence with A296M, N360A

[3] = biological target: T3, human C2 K244A (human, UniProt P06681 21-752)
T3 sequence: T1 sequence with K224A, A296M

[4] = biological target: T4, human C2 G432A (human, UniProt P06681 21-752)
T4 sequence: T1 sequence with A296M, G412A

B1: RF16-242 (antibody, human IgG4 S228P, lambda, V domains shown)
VH: EVQLLQSGAEVKKPGESLKISCKGSGYSFTSYWIGWVRQMPGKGLEWMGIIYPGDSDTRYSPSFQGQVTISADKSISTAYLQWSSLKASDTAMYYCARRGHYGDYFDYWGQGTLVTVSS
VL: SYELTQPPSVSVSPGQTARITCSGDALPKKYAYWYHQKSGQAPVLVIYEDRRRPSEIPERFSGSSSGTMATLTITGAQVEDEGVYFCYSRDRAGNQRVFGGGTQLTVLG
notes: pH-dependent anti-C2 antibody from a phage display library
Kd [1]: 10.1 nM
Kd [2]: 10.2 nM
Kd [3]: 26.2 nM
Kd [4]: 8.8 nM
